Data published in article PMC3337327, “Crystal structures from the Plasmodium peroxiredoxins: new insights into oligomerization and product binding” (BMC Structural Biology, 2012).

What was measured:
[1] = target: Plasmodium knowlesi thioredoxin peroxiredoxin 1 (PkTrx-Px1), full-length His6-tagged construct (P. knowlesi H); test: LC-MS-TOF mass spectrometry; purified enzyme as isolated, without reducing agent; Agilent LC-MS-TOF, positive ion mode, desalted on a Poroshell 300-SB-C3 column; shows the covalent (disulfide-linked) dimer
[2] = target: Plasmodium vivax thioredoxin peroxiredoxin 1 (PvTrx-Px1), full-length His6-tagged construct (P. vivax Salvador I); test: crystal structure; PvTrx-Px1_ox, His6-tag intact, 8 mg/mL in 10 mM HEPES pH 7.5, 500 mM NaCl; 5% PEG 4K, NaAc pH 4.6, 18 C; 2.5 A
[3] = target: Plasmodium vivax thioredoxin peroxiredoxin 1 (PvTrx-Px1), full-length His6-tagged construct (P. vivax Salvador I); test: crystal structure; PvTrx-Px1_red, His6-tag intact, protein treated with 5 mM TCEP; 19% PEG 3350, 150 mM lithium citrate, 18 C; 2.45 A
[4] = target: Plasmodium vivax thioredoxin peroxiredoxin 1 (PvTrx-Px1), full-length His6-tagged construct (P. vivax Salvador I); test: LC-MS-TOF mass spectrometry; purified enzyme as isolated, without reducing agent; Agilent LC-MS-TOF, positive ion mode, desalted on a Poroshell 300-SB-C3 column; shows the covalent (disulfide-linked) dimer
[5] = target: Plasmodium yoelii 1-Cys peroxiredoxin of the Prx6 subfamily (PyPrx6), full-length His6-tagged construct (P. yoelii 17XNL); test: SEC; calibrated Superdex S200 gel filtration column, 10 mM HEPES pH 7.4, 500 mM NaCl; PyPrx6 eluted at 220 mL
[6] = target: Plasmodium yoelii 1-Cys peroxiredoxin of the Prx6 subfamily (PyPrx6), full-length His6-tagged construct (P. yoelii 17XNL); test: crystal structure; PyPrx6-SO2H with glycerol bound, His6-tag intact, 15 mg/mL; 23% PEG 3350, 0.1 M Bis-Tris pH 5.5, 200 mM (NH4)2SO4, 5% ethylene glycol, 20 C; 2.3 A
[7] = target: Plasmodium yoelii thioredoxin peroxiredoxin 1 (PyTrx-Px1), full-length His6-tagged construct (P. yoelii 17XNL); test: LC-MS-TOF mass spectrometry; purified enzyme as isolated, without reducing agent; Agilent LC-MS-TOF, positive ion mode, desalted on a Poroshell 300-SB-C3 column; shows the covalent (disulfide-linked) dimer
[8] = target: Plasmodium yoelii thioredoxin peroxiredoxin 1 with a 6-residue N-terminal truncation (PyTrx-Px1: Q7-L195) (P. yoelii 17XNL); test: crystal structure; PyTrx-Px1_ox, His6-tag intact, 4.3 mg/mL; 1.6 M ammonium sulfate, 100 mM HEPES pH 6.8, 200 mM NaAc, 20 mM NaBr, 5% ethylene glycol, 18 C; 2.3 A
[9] = target: Plasmodium yoelii thioredoxin peroxiredoxin 1 with a 6-residue N-terminal truncation (PyTrx-Px1: Q7-L195) (P. yoelii 17XNL); test: LC-MS-TOF mass spectrometry; purified enzyme as isolated, without reducing agent; Agilent LC-MS-TOF, positive ion mode, desalted on a Poroshell 300-SB-C3 column; shows the covalent (disulfide-linked) dimer
[10] = target: the molecule itself; test: as above

Plasmodium knowlesi thioredoxin peroxiredoxin 1 (PkTrx-Px1), full-length His6-tagged construct (enzyme)
stoichiometry N [1]: 2

Plasmodium vivax thioredoxin peroxiredoxin 1 (PvTrx-Px1), full-length His6-tagged construct (enzyme)
stoichiometry N [2]: 10 | stoichiometry N [3]: 10 | stoichiometry N [4]: 2

Plasmodium yoelii 1-Cys peroxiredoxin of the Prx6 subfamily (PyPrx6), full-length His6-tagged construct (enzyme)
stoichiometry N [5]: 2 | stoichiometry N [6]: 2

Plasmodium yoelii thioredoxin peroxiredoxin 1 (PyTrx-Px1), full-length His6-tagged construct (enzyme)
stoichiometry N [7]: 2

Plasmodium yoelii thioredoxin peroxiredoxin 1 with a 6-residue N-terminal truncation (PyTrx-Px1: Q7-L195) (domain or fragment)
stoichiometry N [8]: 8 | stoichiometry N [9]: 2

B1: Plasmodium falciparum thioredoxin peroxiredoxin 1 (PfTrx-Px1), full-length His6-tagged construct (enzyme, P. falciparum 3D7, UniProt Q8IL80 1-195, looked up)
chain: MASYVGREAPYFKAEAVFADNTFGEVNLHDFIGKKYVLLYFYPLDFTFVCPSEIIALDKALDAFKERNVELIGCSVDSKYTHLAWKKTPLTKGGIGNIQHTLISDITKSISRSYNVLFGDSVSLRAFVLIDKQGVVQHLLVNNLAIGRSVEEVLRIIDAVQHHEQHGDVCPANWKKGKVAMKPSEEGVSEYLSKL
modifications: intermolecular disulfide between the peroxidatic and resolving cysteines (C50, C170) in the enzyme as purified
notes: thioredoxin peroxiredoxin 1 (Trx-Px1, 2-Cys Prx, Prx1 subfamily), P. falciparum 3D7, PlasmoDB PF14_0368, full length; N-terminal Met of the tag is clipped in E. coli; also called Trx-Px1 from P. falciparum
stoichiometry N [10]: 2
